Assay: soluble on expression in E. coli; label from the status in PepcDB or PDB records

Sequence | soluble on expression in E. coli
MWLTKLVLNPASRAARRDLANPYEMHRTLSKAVSRALEEGRERLLWRLEPARGLEPPVVLVQTLTEPDWSVLDEGYAQVFPPKPFHPALKPGQRLRFRLRANPAKRLAATGKRVALKTPAEKVAWLERRLEEGGFRLLEGERGPWVQILQDTFLEVRRKKDGEEAGKLLQVQAVLFEGRLEVVDPERALATLRRGVGPGKALGLGLLSVAP | soluble
MAHHHHHHMHDANRFGGRTAYLREIGPIDHKKKGRLFKRDLPTLQFNVDVWCAQQTLRKQWKGRDWDVVEMPFEMAPKELQRVVPEKYTDVPIMTDPARHDYMNIRRKVFDREDMQDALFASGGAGQSPYPAIQRVDKAAMTLDKYL | soluble
MSLKIDFLTLFPEMFEGVLGSSILQKAQEKDAVQFQVVNFREYSDNKHNTVDDYPYGGGAGMVLKPQPVFDAVEDLTSKAAAAPRIILVCPQGERFTQKKAEQLAKEEHLLFICGHYEGYDERIREHLVTDEISIGDFVLTGGELPAMMIADSVVRLLPGVLGKEASHIEDSFSTGLLEHPHYTRPADYKGLKVPETLLSGNHAKIEEWRNKESIRRTYLRRPDLLKDYPLTEQQRKWISEWEKEEGGSHHHHHH | soluble
MHHHHHHSSGVDLGTENLYFQSMPRARPGGNRVTVVLGAQWGDEGKGKVVDLLAQDADIVCRCQGGNNAGHTVVVDSVEYDFHLLPSGIINPNVTAFIGNGVVIHLPGLFEEAEKNVQKGKGLEGWEKRLIISDRAHIVFDFHQAADGIQEQQRQEQAGKNLGTTKKGIGPVYSSKAARSGLRMCDLVSDFDGFSERFKVLANQYKSIYPTLEIDIEGELQKLKGYMEKIKPMVRDGVYFLYEALHGPPKKILVEGANAALLDIDFGTYPFVTSSNCTVGGVCTGLGMPPQNVGEVYGVVKAYTTRVGIGAFPTEQDNEIGELLQTRGREFGVTTGRKRRCGWLDLVLLKYAHMINGFTALALTKLDILDMFTEIKVGVAYKLDGEIIPHIPANQEVLNKVEVQYKTLPGWNTDISNARAFKELPVNAQNYVRFIEDELQIPVKWIGVGKSRESMIQLF | soluble
GPGSMFFLTRFKLGMADVTAAIGSGKCGEVLRKLNEKKAVREREENIDYRRALCFLANSQDVFHARQALLEELRHFPNNTAARTLLLEVNETVRPLLMPPKELLKSEPLFGLLCDALLDHTMLTWTRLYSLYRLSKEVCSKEGEGGALMECGVSGGGSVVLLAVVAAHYSKKPRKIYALDTFSGMPEPTTHDNLEEDGNLKPAESTSWGSGTCSATVENVRQLAKNFDVEEGLVVIPGLFHETMPKTLREISDEGISMLHVDADWYESTRCALELAWPMVKQGGMVQVDDYHYWLGCRKAVDEFAQREESEHRPLPILQNVDGNAVYFTKP | not soluble
GTRKCELQGLWRNELGSNMTISALDVAGTFSGSYQTAVTATNKQILVSPLKGAQQPPGTKGQQPTFGFTVQWQFADSTTVFVGQCFVDRRGKEMLEMAWLLREEVPSRKDTWKATRVGTNVFTRVK | soluble
STDIQMTQSPSSLSASVGDRVTITCQASQDINNYLIWYQQKPGQAPKLLIYDASTLETGVPSRFSGSGSGTEFTFTISSLQPEDLATYYCQQYDNLPYTFGQGTKLEIKR | soluble
LDLNNPQYNDVYEINYDFIYSLRNIMDYVVRGDEWALDDYYEALDIRNDDLRWVLSDVQYRRFLGAEYFYRPIYVTGGRWNFRIYINYPNRSLFYFGVPYHYRTYCGAHYRPHIHHVSYYRGRYNNLVHYPTPYRVRDQRVFHSYRRSDFGSVRFRPNTSVRPHNAPTRPGTSGRPGTTSR | not soluble
MIHQFHSEQQFRSLGMCVVSTFGSGRACTFIGALYAIHQLNNGVEPNIFEIMKTIKQQRPGAIESFPQYSGVYAIVLDYISRKRGGKSDPVNKYINRFLADLTEILPACSTLPVMNPSTELH | not soluble
AHHHHHHGSGETLRIAFIYDVIYPWVKGGVERRLYEIAKRLAEKHEVHIYGYKHWDGKKIQEMNGIFYHGTIKPKKIYHGNRRAILPPIFHSINLLFLLKGQHLDIIDCQATPYFPCYASRVSNSNLVITWHEFWGNYWLKYLGRAGFFGKIIERGLFVLTDNHIAVSLKTKKDLYKAGLRKNIYVVPNGIDFEKIQEIKPSSYTSDIIFVGRLIKEKNVPLLLKALTIIKQDIPDVKAVVVGDGPEREYLEKLSFKLNLQDNVKFLGFLNRYEDVVALMKASKVFAFPSLREGFGIVVIEANASGLPVVTVEHEMNASKDLILEWKNGFIAKVNEKDFAEKILIALEKRKKMKKLSTEIARKYNWNEIVKKLERYYRWIA | soluble
MLGLRRKVRIETERMTLRLPAHSDWRDWAALRAESATFLTPWEPVWSSDHLSRKAFTNRVYWAARAESQGTALPVLLIRREDQALLGAITLDNIRRGPAQSGTLGYWIGRPHARQGYMREAIQGIVHHAFTAMDVSRIEAACLPENAASRGVLEKCGFKYEGVAQSYLQIAGRWRNHVLYANLRGDRRGRTDAG | not soluble
GAMDGNMKEVTQLPEPQTASLAELQQMKLFLKLLKKQEKELKELERKGSKRREELLQKYSVLFLEPVYPRGLDSQVVELKERLEMELIHLGEEYHDGIRRRKEQHATEQTAKITELAREKQIAELKALKESSESNIKDIKKKLEAKRLDRIQVMMRSTSDKAAQERLKKEINNSHIQEVVQTIKLLTEKTARYQQKLEEKQAENLRAIQEKEGQLQQEAVAEYEEKLKTLTVEVQEMVKNYMKEVFPDGPE | soluble
MTLTEQPQRIAILHSLYLEYFLALGTPPIASAGASTGDAMKALGEWETLKPYAGTAKIIDLGSARDLNLEAILGANPDVIVTFKGQGNLDKIYEQLEQIAPVILVDFSAPWQEQILACAEIVNKEADAQKLIKEIEDSVQSAKEKLSRLEHHHHHH | not soluble
MGSDKIHHHHHHMMTQVPDTPQALYRALPSMDSLLADAVLAPLLQRYGKAAVKAALDSQLRTARELIAQERRLPAWCANPSLLNGYLVDQLSKDYSHSLKPVWNLTGTILHTNLGRAQQSEAAIRAVTSVMRYPTPLEFELAAGERGHRDNAISGLIQRLTGAEACCVVNNNAAAVLLMLSAVAAGKEVIVSRGELVEIGGAFRIPDIMRQAGCTLVEVGSTNRTHLKDYEQAITENTAAIMKVHTSNYHISGFTAAVEEARLGQLCRERGILLISDLGSGSLTDLRRFGLKQEPTPQAMLADGVDLVSFSGDKLLGGPQSGLIVGKQALINKLQSHPLKRALRCDKLILAALEATLIHYLNPETLDKELPIMAKFARSQAELRQIGERLQQALAPLFTPSYGLELVECQTQVGSGSQPDTFLPSIGLCFNAQEGGSLTLLEQHFKQAQRPVIGRMTQDQLRLDLRGIDDEAELLAELSTLGVQL | not soluble
MSQGFKTEADVMRNTAHRVDDTNQEVSAELSRLRSIVDGVRASWEGTAQVSFDNLMQRWDASAKGLQDALQSISDNIRGNATSFENVEADNQSAFSAVGGQGLAL | not soluble
MAHHHHHHMLKFFTEKANHQALKAVLCAVFVQKPLEVTLGSTYSTPYLQLPKSRALLYSCNEAARLIWSTHAAPLPADNSLEGEAEWLEWESTVLTPALTPLYTHRRITGEAEAALKKLDSTIEEHQGTVAVKGAPSSTSFLVDSVLFASLLPALCEGGLLPAAQAARVPHLVKWFQAFQAEHAELIASAFDVLSVQECGDFLRVP | soluble
MSLSDDTSVVQDYIKSRDALVVLEQKMPLRDAFGGRYADIFSRFPGVIGRDGFEYFYRYFKNHVAVDVGTATAVTTLRVQAYTSKDAYLINKYLLEMAEKRVNELNDRSRQDSLRYALAEVAGAEAKVKAASTALSKFRSKASLFDPDRQSNIQLELVAKLRGELIAKQAQLSQLRMLSPQNPQIPSLAASIGALEASIASEKGGVAGEKNSLSDRSVEYQRLALEQSFGEKLLASALTSLEQARADAERKQIYLERVAEPNEPDVAMEPKREGHHHHHH | soluble
MSLSKTYHFIGIKGSGMSALALMLHQMGHKVQGSDVEKYYFTQRGLEQAGITILPFDEKNLDGDMEIIAGNAFRPDNNVEIAYADQNGISYKRYHEFLGSFMRDFVSMGVAGAHGKTSTTGMLSHVLSHITDTSFLIGDGTGRGSANAKYFVFESDEYERHFMPYHPEYSIITNIDFDHPDYFTSLEDVFNAFNDYAKQITKGLFVYGEDAELRKITSDAPIYYYGFEAEGNDFVASDLLRSTTGSTFTVHFRGQNLGQFHIPTFGRHNIMNATAVIGLLYTAGFDLNLVREHLKTFAGVKRRFTEKIVNDTVIIDDFAHHPTEIIATLDAARQKYPSKEIVAVFQPHTFTRTIALLDDFAHALNQADAVYLAQIYGSAREVDHGDVKVEDLANKINKKHQVITVENVSPLLDHDNAVYVFMGAGDIQTYEYSFERLLSNLTSNVQEGHHHHHH | soluble
MGSDKIHHHHHHMFTDYVLLLFSTTPRRAKGLFNVLRGRRTVSTLFAGLTAGYLDLLDSCHEVPLEDFMAATAALTENGQLTSTATGCWQLTQAGEHRQAKLRQTLYMPQNFEVFQTTDVRRFRIVSQLALQVVSELVHHDRHYYPVTTDPGIQAQVKQWLRQQSKVELGEQIHAALTAFLTSLADPELPTVFVQGITGYQEPGLTNEQLAAQLGRQPWEASLMHTDVICQWIAWIQRHPRDPFSQLLSVLTQASAISQSAEQTYQAFLKTQQLAAIAQTRHLKMSTVREHLLEVAIWSPDFPFEMVLNHEITQQLATIFAAQPDIANWSFQEAQAALPTLDFFEFRLFQIMRCQHVRR | not soluble
MGSDKIHHHHHHMKRENLHQPFEICFSELDESQLKEHDHTFFELVYILSGTGIQWINNNKFPYHDGHLFMITPGDIHSFDIHTTTKFVYIKFNDIYIHSAVFGAENIQRLEFILQHANHRPGCILRNQTDKLLVKPMIEAIIREYVNRNIYSSEIITQLINTIVIVVARNIAMFLPEQIDENSEEKSLNILQYIQSNICYPEKIKAKAISQHFGISPNYLGRYFKKQTNETMQQYILNYKMKMVESRLLHSEMRISEIVEELGFTDESHLNRLFKKYKDCNPTDFRKKHRGQ | not soluble
MGSDKIHHHHHHMNQSRLICFVALLFVLSGCQGKPVTIPEEDGPMVVVSHIKESTFSFISKNKMELLETEESPYPLTAMVDIEGGQIVVTSQTEDTLFLFDTVQGKILPFITLNKGLTVMEFDRAKRMLFVADTLNDEIIQIDVDKREVQTRIAIDCSPTDLQVIDDLLFILSSETSTVFIYDMRSETMIQSFSVTERPAGMFYDGSHLWIGGHGPYGDLNKRIFAYNIKTGVIDQEVEVGLMPITIYQDQHDTYVYVLCHGDDALYKVDLDAKRVEASLSVGHNPYYLKGDGDHLYVSNLDDDTFSIIERTTFQVVNEINVPAGPYAIVLEEEE | not soluble
PRRTDADGEKMLAYLNTLYADKQAFELRADSLRKEVRQRLGIDTLLAQCVNSTPILSKIRKFDGYTVQNFALETLPGLYVCGSVYTPQSKGKHALIICPNGHFGGGRYREDQQQRMGTLARMGAVCVDYDLFGWGESILQVGSTAHRSSAAHTIQAMNGLLILDYMLASRKDIDTKRIGANGGSGGGTHTVLLTTLDDRFTASAPVVSLASHFDGGCPCESGMPIQLSAGGTCNAELAATFAPRPQLVVSDGGDWTASVPALEFPYLQRIYGFYDAKDNVTNVHLPKEKHDFGPNKRNAVYDFFAEVFD | not soluble
MNRWQRAWRHLCSTGWQARRQFPAAQLKRLERQIAESERAHRGQLRFVVESALDWRAAWRGMSARERALQWFGELRVWDTEDNTGVLVYLLLAERRIEIVADRGIHRLAPAGEWAGICADMQRAFAAGAHVEGLESGLRRIHALLLAHAPRNGEPFVNELPDQVVVRLEHHHHHH | not soluble
MIGQTNLFDDVLKQDERFVIVVQALEEKNGQLLKRTLREYPGLNHKQMNDLFTHLKELFSEESFAENQSAFSITVYTNLDYTADQIYAHVKRFRGKHDWTQTAKLEHHHHHH | soluble
